Measurements taken from US6518054B1, “Metallo-endopeptidases” (Rijksuniverstteit Te Groningen, priority 1997, dated 2003).

Columns and labels:
[1] = Effect of denaturing agents on protease activity (FaGLa, 50° C.); format: biochemical
Procedure: Protease activities were determined in 50 mM MOPS (pH 7.0), 5 mM CaCl2, 50 mM NaCl, 0.01% Triton X-100, 0.5% isopropanol, using 100 μM FaGLa (3-(-2-furylacryloyl)-L-glycyl-L-leucine amide) as a substrate at 50° C. Enzymes and denaturing agents were preincubated in the reaction mixture at 50° C. for 15 minutes prior to the addition of the substrate. The reaction was followed by measuring the change in absorbance at 345 nm. […] Activities are expressed as percentage of the activity in the absence of denaturant.

[2] = tested on: α-amylase from Bacillus licheniformis; assay: Hydrolysis of protease resistant α-amylase (SDS-PAGE); format: biochemical; conditions: 60 minutes
Procedure: As an example of the enzymatic activity of the 8-fold mutant we tested the hydrolysis of protease resistant α-amylase from Bacillus licheniformis by the 8-fold mutant. B. licheniformis α-amylase (1 mg/ml) in 50 mM MOPS, pH 7.0, 5 mM CaCl2, 0.01% Triton X-100 was incubated with purified TLP-ste (1 μg/ml), the 8-fold mutant or without protease for 60 minutes at the temperature indicated. The reaction volume was 500 μL. […] Precipitates (only observed in the 100° C. samples) were collected by centrifugation and redissolved in 500 μL 6 M Urea. Both supernatants and redissolved precipitates were subjected to standard SDS-PAGE, including pre-treatment with sample loading buffer (5 minutes at 100° C.). The samples were identical in size (20 μL supernatant and 20 μL dissolved precipitate). Gels were stained with Coomassie-brilliant blue.

casein [3] = assay: Optimum temperature for activity with casein; format: biochemical; conditions: casein 0.8%, 30 minutes
Procedure: (§1) Specific activities for TLP-ste and the 8-fold mutant were determined using casein (0.8%) as a substrate in 50 mM Tris-HCl (pH 7.5), 5 mM CaCl2 at 37° C. […] (pH 7.0), 5 mM CaCl2, 5% or 1% DMSO, 0.5% isopropanol, 0.01% Triton X-100, 50 mM NaCl, with […] of substrate, by measuring the decrease in absorption at 345 nm (Î345=−317 M^−1·cm^−1). Stock solutions of the furylacryloylated dipeptides, (Sigma, St. Louis, […].) were prepared by dissolving 3-(-2-furylacryloyl)-L-glycyl-L-leucine amide (FaGLa) and 3-(-2-furylacryloyl)-L-alanyl-L-phenylalanine amide (FaAFa) in DMSO. The kcat/Km ratios of the enzymes were determined by varying the enzyme concentrations (over a 50 fold range) under pseudo-first order conditions by measuring the initial activity, essentially according to the method described by Feder^30. The Ki for phosphoramidon (N-[a-L-rhamnopyrano-syl-oxyhydroxyphophinyl]-L-leucyl-L-tryptophan) was determined by a 30 minute preincubation of a 100 pM protease solution with varying concentrations of the inhibitor (10^−8 to 10^−3 M), in 50 mM MOPS (pH 7.0), 5 mM CaCl2, 50 mM NaCl, prior to the addition of the furylacryloated substrate. For determination of the Ki FaAFa was used as the substrate. Since the Km of the substrate for the enzyme is higher than the concentration used, IC50 values were taken to be equal to Ki values. The optimum temperature for activity was determined by incubating proteases with casein (0.8%) in 50 mM Tris-HCl (pH 7.5), 5 mM CaCl2, at different temperatures for 30 minutes, after which the amount of released peptides, indicative for activity, was measured^11.

[4] = Thermal stability (T50) at varying CaCl2 concentrations
Procedure: Thermal stability was measured, using varying CaCl2concentrations in the standard assay buffer (20 mM Na acetate, pH 5.3, 0.01% Triton X-100, 0.5% isopropanol, 62.5 mM NaCl). T50 is the temperature of incubation at which 50 percent of the initial proteolytic activity is lost during a 30 minutes incubation.

[5] = First order thermal inactivation of TLP-ste variants at 75° C. in 5 mM or 0.2 mM CaCl2
casein [6] = assay: Specific activity with casein as substrate at 37° C.; format: biochemical; conditions: casein 0.8%, pH 7.5, 5 mM CaCl2
Procedure: as §1

[7] = format: physicochemical; conditions: buffer, pH 5.3
Procedure: Stabilities of TLPs were determined at different temperatures. Shown are the first-order inactivation curves for TLP-ste incubated at 80° C. (Δ) and 90° C. (+), thermolysin at 90° C. (Δ), and the 8-fold mutant at 100° C. (●), respectively. […] Samples, taken at the various time points, were quickly cooled on ice (15 s) and transferred to 50° C. to prevent cold denaturation. Residual activity was determined using casein (0.8%) as a substrate in 50 mM TrisHCl (pH 7.5), 5 mM CaCl2 as described previously (Eijsink, V. G. H., Veltman, O. R., Aukema, W., Vriend, G. & Venema, G. Nature Struct. Biol. 2, 374-379 (1995)).

[8] = 0.2 mM CaCl2, 30 minutes incubation
[9] = 0.5 mM CaCl2, 30 minutes incubation
[10] = 2.5 mM CaCl2, 30 minutes incubation
[11] = 5.0 mM CaCl2, 30 minutes incubation
[12] = 7.5 mM CaCl2, 30 minutes incubation
[13] = 12.5 mM CaCl2, 30 minutes incubation

B1: TLP-ste: broad-specificity metalloprotease (thermolysin-like protease) produced by Bacillus stearothermophilus CU21, SEQUENCE ID No. 1 (protein)
chain: VAGASTVGVGRGVLGDQKYINTTYSSYYGYYYLQDNTRGSGIFTYDGRNRTVLPGSLWTDGDNQFTASYDAAAVDAHYYAGVVYDYYKNVHGRLSYDGSNAAIRSTVHYGRGYNNAFWNGSQMVYGDGDGQTFLPFSGGIDVVGHELTHAVTDYTAGLVYQNESGAINEAMSDIFGTLVEFYANRNPDWEIGEDIYTPGVAGDALRSMSDPAKYGDPDHYSKRYTGTQDNGGVHTNSGIINKAAYLLSQGGVHYGVSVNGIGRDKMGKIFYRALVYYLTPTSNFSQLRAACVQAAADLYGSTSQEVNSVKQAFNAVGVY
Question: What does the source list for B1?
Answer: relative activity ([1]; GndHCl 0 M): 100%; relative activity ([1]; GndHCl 1.0 M): 99%; relative activity ([1]; GndHCl 2.0 M): 62%; relative activity ([1]; GndHCl 3.0 M): 0%; relative activity ([1]; GndHCl 4.0 M): 0%; relative activity ([1]; GndHCl 5.0 M): 0%; relative activity ([1]; GndHCl 5.5 M): 0%; relative activity ([1]; GndHCl 6.0 M): 0%; relative activity ([1]; SDS 0 % w/v): 100%; relative activity ([1]; SDS 0.25 % w/v): 72%; relative activity ([1]; SDS 0.5 % w/v): 37%; relative activity ([1]; SDS 0.75 % w/v): 9.6%; relative activity ([1]; SDS 1.0 % w/v): 0%; relative activity ([1]; SDS 1.25 % w/v): 0%; relative activity ([1]; SDS 1.5 % w/v): 0%; relative activity ([1]; SDS 2.0 % w/v): 0%; relative activity ([1]; Urea 0 M): 100%; relative activity ([1]; Urea 0.5 M): 96%; relative activity ([1]; Urea 1.0 M): 87%; relative activity ([1]; Urea 2.0 M): 75%; relative activity ([1]; Urea 3.0 M): 3%; relative activity ([1]; Urea 4.0 M): 0%; relative activity ([1]; Urea 5.0 M): 0%; relative activity ([1]; Urea 7.5 M): 0%; degradation of B. licheniformis α-amylase ([2]; 80° C. and lower): No significant degradation; hydrolysis of B. licheniformis α-amylase ([2]; 100° C.): no hydrolysis had occurred; Topt (optimum temperature for activity) (casein [3]): 74 °C; T50 [4, 8]: 65.5 °C; T50 [4, 9]: 67.5 °C; T50 [4, 10]: 72.9 °C; T50 [4, 11]: 75.2 °C; T50 [4, 12]: 77.0 °C; T50 [4, 13]: 77.9 °C; Half-life ratio 5 mM/0.2 mM [5]: 12; Specific activity casein (casein [6]): 3.5 ± 0.7 (U/mg) × 10^−3; half-life 80° C. [7]: 17.5 min; half-life 90° C. [7]: <2 min; half-life 100° C. [7]: <0.5 min

B2: TLN: thermolysin, protease secreted by Bacillus thermoproteolyticus, SEQUENCE ID No. 2 (protein, UniProt P00800 233-548, looked up)
Thermolysin: ITGTSTVGVGRGVLGDQKNINTTYSTYYYLQDNTRGNGIFTYDAKYRTTLPGSLWADADNQFFASYDAPAVDAHYYAGVTYDYYKNVHNRLSYDGNNAAIRSSVHYSQGYNNAFWNGSQMVYGDGDGQTFIPLSGGIDVVAHELTHAVTDYTAGLIYQNESGAINEAISDIFGTLVEFYANKNPDWEIGEDVYTPGISGDSLRSMSDPAKYGDPDHYSKRYTGTQDNGGVHINSGIINKAAYLISQGGTHYGVSVVGIGRDKLGKIFYRALTQYLTPTSNFSQLRAAAVQSATDLYGSTSQEVASVKQAFDAVGVK
Question: With B2 as the molecule, how does the “Topt (optimum temperature for activity)” value (casein [3]) read?
Answer: Its value is 77 °C.

Question: And the “half-life 80° C.” value [7]?
Answer: Its value is over 200 min.

Question: And the “half-life 90° C.” value [7]?
Answer: The value was 12.5 min.

Question: And the “half-life 100° C.” value [7]?
Answer: Its value is under 2 min.

B3: D57S: TLP-ste variant with Asp57 of the Ca3 site replaced by Ser (protein, listed as Bacillus sp.)
chain: VAGASTVGVGRGVLGDQKYINTTYSGYYYLQDNTRGSGIFTYDGRNRTVLPGSLWTSGDNQFTASYDAAAVDAHYYAGVVYDYYKNVHGRLSYDGSNAAIRSTVHYGRGYNNAFWNGSQMVYGDGDGQTFLPFSGGIDVVGHELTHAVTDYTAGLVYQNESGAINEAMSDIFGTLVEFYANRNPDWEIGEDIYTPGVAGDALRSMSDPAKYGDPDHYSKRYTGTQDNGGVHTNSGIINKAAYLLSQGGVHYGVSVNGIGRDKMGKIFYRALVYYLTPTSNFSQLRAACVQAAADLYGSTSQEVNSVKQAFNAVGVY
Question: Which results are given for B3?
Answer: dependence of stability on the calcium concentration [4]: reduced this calcium dependence; T50 [4, 8]: 65.9 °C; T50 [4, 9]: 67.3 °C; T50 [4, 10]: 67.5 °C; T50 [4, 11]: 68.2 °C; T50 [4, 12]: 68.8 °C; T50 [4, 13]: 69.4 °C; stability effect of the mutation on the wild-type enzyme ([4]; lowest calcium concentration tested): slightly stabilised; Half-life ratio 5 mM/0.2 mM [5]: 1.5

B4: D57S-T63F-A69P: TLP-ste variant combining D57S with T63F-A69P (protein, listed as Bacillus sp.)
chain: VAGASTVGVGRGVLGDQKYINTTYSGYYYLQDNTRGSGIFTYDGRNRTVLPGSLWTSGDNQFFASYDAPAVDAHYYAGVVYDYYKNVHGRLSYDGSNAAIRSTVHYGRGYNNAFWNGSQMVYGDGDGQTFLPFSGGIDVVGHELTHAVTDYTAGLVYQNESGAINEAMSDIFGTLVEFYANRNPDWEIGEDIYTPGVAGDALRSMSDPAKYGDPDHYSKRYTGTQDNGGVHTNSGIINKAAYLLSQGGVHYGVSVNGIGRDKMGKIFYRALVYYLTPTSNFSQLRAACVQAAADLYGSTSQEVNSVKQAFNAVGVY
Question: With B4 as the molecule, how does the “dependence of stability on the calcium concentration” value [4] read?
Answer: Its value is “largely independent of the calcium concentration”.

Question: What about the T50 [4, 8] of the same molecule?
Answer: Its T50 is 74.6 °C.

Question: And the T50 [4, 9]?
Answer: The T50 was 75.4 °C.

Question: And the T50 [4, 10]?
Answer: Its T50 is 76.2 °C.

Question: And the T50 [4, 11]?
Answer: The T50 was 76.5 °C.

Question: What about the T50 [4, 12] of the same molecule?
Answer: The T50 was 76.7 °C.

Question: And the T50 [4, 13]?
Answer: The T50 was 77.2 °C.

Question: What about the “stability compared with the wild-type enzyme” value ([4]; at lower calcium concentrations) of the same molecule?
Answer: Its value is “considerably more stable than the wild-type enzyme”.

Question: What about the “Half-life ratio 5 mM/0.2 mM” value [5] of the same molecule?
Answer: The value was 1.5.

B5: T63F-A69P: TLP-ste variant with the combined stabilising T63F-A69P mutation (protein, listed as Bacillus sp.)
chain: VAGASTVGVGRGVLGDQKYINTTYSGYYYLQDNTRGSGIFTYDGRNRTVLPGSLWTDGDNQFFASYDAPAVDAHYYAGVVYDYYKNVHGRLSYDGSNAAIRSTVHYGRGYNNAFWNGSQMVYGDGDGQTFLPFSGGIDVVGHELTHAVTDYTAGLVYQNESGAINEAMSDIFGTLVEFYANRNPDWEIGEDIYTPGVAGDALRSMSDPAKYGDPDHYSKRYTGTQDNGGVHTNSGIINKAAYLLSQGGVHYGVSVNGIGRDKMGKIFYRALVYYLTPTSNFSQLRAACVQAAADLYGSTSQEVNSVKQAFNAVGVY
Question: With B5 as the molecule, how does the “dependence of stability on the calcium concentration” value [4] read?
Answer: Its value is “depended strongly on the calcium concentration”.

Question: And the T50 [4, 8]?
Answer: Its T50 is 77.8 °C.

Question: What about the T50 [4, 9] of the same molecule?
Answer: Its T50 is 80.9 °C.

Question: What about the T50 [4, 10] of the same molecule?
Answer: Its T50 is 86.6 °C.

Question: And the T50 [4, 11]?
Answer: Its T50 is 87.2 °C.

Question: And the T50 [4, 12]?
Answer: Its T50 is 89.7 °C.

Question: What about the T50 [4, 13] of the same molecule?
Answer: Its T50 is 90.2 °C.

Question: And the “Half-life ratio 5 mM/0.2 mM” value [5]?
Answer: The value was 19.
